The record followed here is patent US20180030137A1 (ADURO BIOTECH HOLDINGS EUROPE B V, published 2018).

The target in assay [1] is T1, Macaca fascicularis PD-1 (Swiss-Prot entry B0LAJ3), full length, on cells (Macaca fascicularis, UniProt Q15116 25-288 (human entry)).
T1 construct: Full length open reading frame transiently expressed on CHO-K1 cells; also endogenous PD-1 on CD3/CD28-stimulated cynomolgus PBMCs; No signal peptide limits are stated for the cynomolgus entry; also called cyno PD-1; cynomolgus PD-1
T1 chain: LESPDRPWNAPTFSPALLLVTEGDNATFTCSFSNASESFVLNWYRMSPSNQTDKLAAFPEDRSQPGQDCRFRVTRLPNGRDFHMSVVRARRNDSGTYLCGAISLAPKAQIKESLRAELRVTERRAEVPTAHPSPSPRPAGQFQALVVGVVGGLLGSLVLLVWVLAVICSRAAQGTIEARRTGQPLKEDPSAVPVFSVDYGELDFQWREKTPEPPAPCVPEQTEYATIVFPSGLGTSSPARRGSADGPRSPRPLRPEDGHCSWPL
The assay can be described thus: flow cytometry, Binding (%), on anti-CD3/anti-CD28 stimulated cynomolgus PBMCs; animal #1 or #3, same marker in the legend. The procedure:
(§1) To this end Macacaca fascicularis (cynomolgus) blood was diluted 1:1 with PBS and added to 50 ml tubes containing 13 ml Lymphoprep 95%/PBS 5%. Cells were centrifuged for 30′ at 450 g and 20° C. without brake. Next, plasma was removed by aspiration and PBMCs were recovered from the plasma/Ficoll interface. PBMCs were washed twice times in PBS. Cells were frozen in liquid nitrogen and retrieved from the freezer on the day of the experiment. Since endogenous expression of PD-1 on resting T cells is low thus the thawed PBMCs were stimulated with αCD3/αCD28 coated beads (Gibco) for 48 hours.
In general terms: Flow cytometry measures light scatter and fluorescence of single cells or particles in a stream.

For assay [2], the target named is T1, Macaca fascicularis PD-1 (Swiss-Prot …). The assay can be described thus: flow cytometry on CD3/CD28-stimulated cynomolgus PBMCs, three animals. The procedure: as §1
Assay [3] deals with T2, Human PD-1 (Swiss-Prot entry Q15116), full length, on cells (human, UniProt Q15116 21-288).
T2 construct: Full length open reading frame of hPD-1 stably expressed on CHO-K1 cells; also endogenous PD-1 on CD3/CD28-stimulated human CD3+ T cells and PD-1 on transfected Jurkat cells; also called hPD-1; hPDCD1
As to the kind of experiment: flow cytometry, Binding (%), on anti-CD3/anti-CD28 stimulated human CD3+ T cells, donor #2. The procedure:
(§2) Cells were stored in liquid nitrogen and retrieved from the freezer on the day of the experiment. Since endogenous expression of hPD-1 on resting T cells is low, the thawed CD3+ T cells were stimulated with αCD3/αCD28 coated beads (Gibco) for 48 hours.

Assay [4] addresses T2, Human PD-1 (Swiss-Prot entry Q15116), …. The assay can be described thus: CELISA on CHO-K1.hPDCD1 cells; blocking of biotinylated hPD-L2 Fc. As to the method: Parental CHO-K1 or CHO-K1.hPDCD1 cells were seeded in tissue culture plates and incubated for 72 hours at 37° C. in culture medium. […] Cells were then washed three times with PBST followed by addition of Streptavidin-HRP conjugate on the cells, which was incubated for 1 hour at 37° C. […] Reactions were stopped with 100 al 0.5 M H₂SO₄ and absorbances were read at 450 and 610 nm. […] Calculated IC50 values represent the concentration at which half of the inhibition is observed.

The target is the same in assay [5]. As to the kind of experiment: flow cytometry, Binding (%), on anti-CD3/anti-CD28 stimulated human CD3+ T cells; donor #1 or #3, same marker in the legend. The procedure: as §2
For assay [6] the target is unchanged. As to the kind of experiment: cell-based or functional assay.
For assay [7] the target is unchanged. As to the kind of experiment: CELISA on CHO-K1.hPDCD1 cells; blocking of biotinylated hPD-L1 Fc. As to the method:
To further characterize these mutant hPD-1 antibodies they were tested for binding to hPD-1 in CELISA format using CHO-K1 cells (American Type Culture Collection, Manassas, Va.), stably transfected with cDNA encoding the full length open reading frame of hPDCD1 (hPD-1), subcloned into the pCI-neo vector (Promega). Parental CHO-K1 or CHO-K1.hPDCD1 cells were seeded in culture medium (DMEM-F12 (Gibco) with 10% Fetal Bovine Serum (Hyclone) and Pen/Strep (Gibco)) in tissue culture plates and incubated for 48 hours at 37° C. Subsequently culture medium was removed and cells were incubated for 1 hour at 37° C. with the mutant hPD-1 antibodies (10 μg/ml (=66 nM) and dilutions thereof). Next, cells were washed with Phosphate-Buffered Saline/0.05% Tween (PBST) and incubated for 1 hour at 37° C. with Goat-anti-human IgG-HRP (Southern Biotech). Subsequently, cells were washed 3 times with PBST and anti-hPD1 immunoreactivity was visualized with 100 al TMB Stabilized Chromagen (Invitrogen). Reactions were stopped with 100 al 0.5 M H2SO4 and absorbances were read at 450 and 610 nm. […] Blockade of hPD-L1 binding by the mutant hPD-1 antibodies was tested in CELISA format. Parental CHO-K1 or CHO-K1.hPDCD1 cells were seeded in tissue culture plates and incubated for 72 hours at 37° C. in culture medium. Subsequently culture medium was removed and cells were incubated for 1 hour with the mutant hPD-1 antibodies (10 μg/ml (=66 nM) and dilutions thereof) at 37° C. […] Cells were then washed three times with PBST followed by addition of Streptavidin-HRP conjugate on the cells, which was incubated for 1 hour at 37° C. […] Reactions were stopped with 100 al 0.5 M H2SO4 and absorbances were read at 450 and 610 nm. Calculated IC50 values in Table 12 for the blockade of hPD-L1 represent the concentration at which half of the inhibition is observed.

In assay [8] the target is T1, Macaca fascicularis PD-1 (Swiss-Prot …). The assay can be described thus: flow cytometry, Binding (%), on anti-CD3/anti-CD28 stimulated cynomolgus PBMCs, animal #2. As to the method: as §1

A word on the EC50 (read off the curve): it is the concentration needed to bring the measured effect to its halfway point. A low value points to higher potency in that assay. In general, EC50 refers to the concentration giving half of the maximal effect. Broadly, the IC50 is the concentration that inhibits the measured activity by half. Read a high IC50 as lower potency.

Where “and” joins values, the source holds several entries; their conditions need not be identical. Identical values can stand only once.

T2 sequence (Q15116 21-288, one chain of several): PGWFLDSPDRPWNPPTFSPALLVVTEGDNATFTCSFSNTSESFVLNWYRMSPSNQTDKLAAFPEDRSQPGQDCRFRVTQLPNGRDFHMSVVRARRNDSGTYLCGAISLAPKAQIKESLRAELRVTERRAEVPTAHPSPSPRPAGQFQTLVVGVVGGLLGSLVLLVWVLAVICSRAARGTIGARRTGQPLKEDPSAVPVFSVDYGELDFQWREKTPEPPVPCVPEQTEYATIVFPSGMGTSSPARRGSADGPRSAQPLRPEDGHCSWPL

B1: hPD1.29H5L4 (antibody, V domains shown)
VH: EVQLVQSGAEVKKPGASVKVSCKASGYIFTTYYIHWVKQAPGKGLEWIGWIFPGDVSTQYNEKFQDKATITVDKSASTAYMQLSSLRSEDTAVYYCTREAYDYAVYWGQGTLVTVSS
VL: DIQMTQAPSSLSASVGDRVTITCKASQNVDTNVAWFQQKPGKAPKSLIFSASYRYSGVPSRFSGSGSGTDFTLTISSLQPEDFATYYCQQYNNYPFTFGGGTKLEIK
notes: Expressed as human IgG4, kappa with the stabilizing S241P (Kabat) hinge mutation in HEK293 cells; also called humanized PD-1 antibody hPD1.29H5L4
In the case of B1, the 50% effective concentration (EC50 (read off the curve)) in assay [1] is ~1 nM and ~2 nM; in assay [3] it was about 0.2 nM; in assay [5], ~0.2 nM and ~0.3 nM; in assay [8], about 2 nM. For the same molecule, the EC50 in assay [2] came to 1.6 nM. Also, the IC50 stood at 0.61 nM in assay [4] and 1.3 nM in assay [7]. Further, in assay [6], the “IC50; NFAT-luciferase signal (RLU) of Jurkat cells expressing human PD-1, with CHO cells expressing hPD-L1” value came to 4.39 nM.
